{
  "source": "the supplement of paper PMC10724198",
  "key": {"[1]": {"system": "Saccharomyces cerevisiae", "experiment": "protein stability index of tFT-peptide fusion in wild type (PSI (0-1 scale)); higher = more stable (slower turnover)", "details": "genetic background: wild type"}, "[2]": {"system": "Saccharomyces cerevisiae", "experiment": "protein stability index of tFT-peptide fusion in deletion strain of DOA10 (PSI (0-1 scale)); higher = more stable (slower turnover)", "procedure": "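MPS profiling in S. cerevisiae of two library types built from selected 12-aa C-degron peptides (IN1, IN2, LN1, LN3, VN2, R1-R5, W1-W3, Atg1 and Rpa12 C-termini): saturation mutagenesis libraries and C-terminal +1 capping libraries (13 aa). Each peptide is fused to the C-terminus of a sfGFP-mCherry timer, after a GGGS linker. Cells are FACS-sorted into 8 mCherry/sfGFP bins and sequenced. PSI runs from 0 (unstable) to 1 (stable), measured once in wild type and in the das1Δ or doa10Δ background.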"}},
  "data": [
    {"sequence": "RVTELDAIYFRI", "values": [
      {"measurement": "protein stability index", "setting": "[1]", "value": 0.633},
      {"measurement": "protein stability index", "setting": "[2]", "value": 0.64}
    ]},
    {"sequence": "AITLAMCPLLLR", "values": [
      {"measurement": "protein stability index", "setting": "[1]", "value": 0.418},
      {"measurement": "protein stability index", "setting": "[2]", "value": 0.65}
    ]},
    {"sequence": "RSNRVLLPLYFR", "values": [
      {"measurement": "protein stability index", "setting": "[1]", "value": 0.334},
      {"measurement": "protein stability index", "setting": "[2]", "value": 0.701}
    ]},
    {"sequence": "YSLRVLLPLYFR", "values": [
      {"measurement": "protein stability index", "setting": "[1]", "value": 0.244},
      {"measurement": "protein stability index", "setting": "[2]", "value": 0.632}
    ]},
    {"sequence": "RVVRLDAIYFRI", "values": [
      {"measurement": "protein stability index", "setting": "[1]", "value": 0.399},
      {"measurement": "protein stability index", "setting": "[2]", "value": 0.65}
    ]},
    {"sequence": "CSVSLPILLFFR", "values": [
      {"measurement": "protein stability index", "setting": "[1]", "value": 0.0485},
      {"measurement": "protein stability index", "setting": "[2]", "value": 0.617}
    ]},
    {"sequence": "AITLPMMPLLLR", "values": [
      {"measurement": "protein stability index", "setting": "[1]", "value": 0.187},
      {"measurement": "protein stability index", "setting": "[2]", "value": 0.639}
    ]},
    {"sequence": "RVTRLDAICFRI", "values": [
      {"measurement": "protein stability index", "setting": "[1]", "value": 0.656},
      {"measurement": "protein stability index", "setting": "[2]", "value": 0.713}
    ]},
    {"sequence": "GLYMYSVGCWFR", "values": [
      {"measurement": "protein stability index", "setting": "[1]", "value": 0.238},
      {"measurement": "protein stability index", "setting": "[2]", "value": 0.605}
    ]},
    {"sequence": "GIYMCSVGCWFR", "values": [
      {"measurement": "protein stability index", "setting": "[1]", "value": 0.256},
      {"measurement": "protein stability index", "setting": "[2]", "value": 0.611}
    ]},
    {"sequence": "CLVSLPILLFTR", "values": [
      {"measurement": "protein stability index", "setting": "[1]", "value": 0.314},
      {"measurement": "protein stability index", "setting": "[2]", "value": 0.477}
    ]},
    {"sequence": "GLYACSVGCWFR", "values": [
      {"measurement": "protein stability index", "setting": "[1]", "value": 0.386},
      {"measurement": "protein stability index", "setting": "[2]", "value": 0.678}
    ]},
    {"sequence": "GLYPCSVGCWFR", "values": [
      {"measurement": "protein stability index", "setting": "[1]", "value": 0.394},
      {"measurement": "protein stability index", "setting": "[2]", "value": 0.678}
    ]},
    {"sequence": "RVTRLDAIYFRE", "values": [
      {"measurement": "protein stability index", "setting": "[1]", "value": 0.676},
      {"measurement": "protein stability index", "setting": "[2]", "value": 0.725}
    ]},
    {"sequence": "RVKRLDAIYFRI", "values": [
      {"measurement": "protein stability index", "setting": "[1]", "value": 0.392},
      {"measurement": "protein stability index", "setting": "[2]", "value": 0.64}
    ]},
    {"sequence": "RDLRVLLPLYFR", "values": [
      {"measurement": "protein stability index", "setting": "[1]", "value": 0.295},
      {"measurement": "protein stability index", "setting": "[2]", "value": 0.675}
    ]},
    {"sequence": "RSLRCLLPLYFR", "values": [
      {"measurement": "protein stability index", "setting": "[1]", "value": 0.408},
      {"measurement": "protein stability index", "setting": "[2]", "value": 0.681}
    ]},
    {"sequence": "AITLPMCGLLLR", "values": [
      {"measurement": "protein stability index", "setting": "[1]", "value": 0.243},
      {"measurement": "protein stability index", "setting": "[2]", "value": 0.63}
    ]},
    {"sequence": "AETLPMCPLLLR", "values": [
      {"measurement": "protein stability index", "setting": "[1]", "value": 0.55},
      {"measurement": "protein stability index", "setting": "[2]", "value": 0.697}
    ]},
    {"sequence": "GLYKCSVGCWFR", "values": [
      {"measurement": "protein stability index", "setting": "[1]", "value": 0.453},
      {"measurement": "protein stability index", "setting": "[2]", "value": 0.671}
    ]},
    {"sequence": "AIILPMCPLLLR", "values": [
      {"measurement": "protein stability index", "setting": "[1]", "value": 0.277},
      {"measurement": "protein stability index", "setting": "[2]", "value": 0.617}
    ]}
  ]
}
